Experimental data reported in the supplement of paper PMC9170038.

What follows are sequences tested on MS2 coat protein (assay: apparent KD of MS2 coat protein; higher = weaker reporter binding). Details: Eterna round: R107; input ligand: arginine 13.2 mM.
In short: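 Binding of SNAP-549-labelled MS2 coat protein was measured on designed RNA switches transcribed on-chip from Illumina sequencing clusters. The protein rose in twofold steps from 0.7 or 1.5 nM to 3 µM, with 0.8–1.5 h per step early on and 10–20 min per step later, in 100 mM Tris-HCl pH 7.5, 80 mM KCl, 4 mM MgCl2, without or with constant ligand. Each design's apparent KD is the median of fits to its normalised cluster binding curves.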

Sequence	apparent KD of MS2 coat protein
AUUUACAUGGUCAUAUAUAUAUCGUCAGAUACCAGACGAGAUAUUGUCCCUUGGCAGCUGUUACAUGAGGAUCACCCAUGUAAUU [JR_Nu_ExcTheophyA_Sub021]	41 nM
UGCCCUGCGAGCGCUCGCAGGGCAGCGGAUACCAGCGAGGUCCAUCGCCCUUGGCAGCCGAACAUGAGGAUCACCCAUGUCGGUG [Same State - Theophylline A Attempt #9 (HarryS)]	11.4 nM
AGCAUGUUAUCAGAUACCAGACAUCUUUUAAAACAUAUUACAUGAGGAUCACCCAUGUUGGUCCCUUGGCAGCUGAAAUAUUUCA [JR_Nu_SSTheophyB_Sub024]	118 nM
GUCCUAGCGAGCGCUCGCUAGGACGCGGAUACCAGCGAGGUCCAUCGCCCUUGGCAGCCGAACAUGAGGAUCACCCAUGUCGGUA [#1 Same State - Theophylline A Attempt #16 (HarryS)]	8.3 nM
ACGGAGAUUGCUAAAUGUUGGCGAGCGGAUACCAGCCUAUUAUUGGGCCCUUGGCAGCCGACAUGAGGAUCACCCAUGUAAACAA [Berere]	9.36 nM
GGUUGGUGUGGAGACAUAUUGAUCACUGAAGGAGCGGGAAUAAACCCAGGUAGGUCGCAGAGAUCCACAUGAGGAUCACCCAUGU [!0.Q]	80.8 nM
UUUAUGGAGCUUUUAUUUACGAUUUCUGAUACCAGUGUUUCAUUUCACCCUUGGCAGCAGUGACAUGAGGAUCACCCAUGUAAUA [JR_Nu_SSTheophyA_Sub020]	28.1 nM
CGGUACAUGAGGAUCACCCAUGUGUCGGAUACCAGAGAGCCGUCUCUCCCUUGGCAGCUGGUUUUACAUGAGGAUCACCCAUGUG [Exclusion Theophylline A GF20]	12.5 nM
ACACAUGAGGAUCACCCAUGUGCGCUGGAAGGAGCGCAGAAUCAUGCAGGUAGGUCGCCAGUGCCCUUCGAUAAAGGGAAAAGAG [Erbienes]	42.4 nM
GGUCUCUGGAGCGAUACCAGCUUAAAUGUACUGGCCAGGUACAUGAGGAUCACCCAUGUAAGCCCUUGGCAGCGCUCCAGAGACC [#1 Exclusion - Theophylline B Attempt #13 (HarryS)]	12.3 nM
ACAUGAGACAUGGAUACCAGCGACAUGAGGAUCACCCAUGUAUGAGGAUCACCCAUGUUAUGCCCUUGGCAGCCACAAACAUGAG [.PLMULLINP]	19.8 nM
GAUGAACUAUUUGAUACCAGACUACAUGAGGAUCACCCAUGUGAGUUUCCUCCUCUGCCAGUCCCUUGGCAGCAAAUAGUUUAUC [XTheo B #7]	57.6 nM
GGGCGCGUGGACCGGCGUGCUCCGCUCCGUCGAGGACCGGUACGGCCGCCACUCGACAUGAGGAUCACCCAUGUGCGAGCUCGCG [#1 Exclusion - Tryptophan A Attempt #15 (HarryS)]	16.2 nM
GGAUAGGACAGAAGGAGCGUGAGAUGCAUACCUUCAUUCCUCACAUGAGGAUCACCCAUGUCACAGGUAGGUCGCUGUCCUAUCG [#20 Exclusion - Arginine B]	64.8 nM
UACAUGAGGAUCACCCAUGUCCCAUGUGAACGAGGACCGGUACGGCCGCCACUCGACCGAGGCGGCACAUGAGGAUCACCCGCAU [whbob_SS_trypto A_2s15]	121 nM
GGAAUAAUGGCGGCCGCCACUAACUCAUAUACAUCAUGUACAUGAGGAUCACCCAUGUAGGUGUAUAGGACCGGGCCAUAAUUCC [39MS split4]	20.1 nM
UGGUACAUGAGGAUCACCCAUGUCCUCAUCCGAGGACCGGUACGGCCGCCACUCGAAAUUGCGAUCGGCACAAAACAAAUGCUUG [theeternabot_sameState_MS2_Trp_A_39]	87.8 nM

Sequence	apparent KD of MS2 coat protein
AGAGCAUUGACGGCCGCCACUUAUGUCACAUGAGGAUCACCCAUGUGAUGGGUGAUAGCCCGGUUGAGGACCGGGUCAAUGCUCA [Omei Tryp SS B v6]	14.8 nM
CUGACGGACUCGGCCGCCACUGAUAGUAGGACAUGAGGAUCACCCAUGUAAACGAACCUCAUAGCCAGGACCGGGAGUCACGAAG [Same State Tryptophan B GF 22]	56.4 nM
AAUAAUAUGAGGAUCACCCAUAUAAAAGAUACCAGAGUGAUGAUCCUCCCUUGGCAGCUUAACGCUGAUUGAUUACAAUCAGCGA	68.7 nM
GCAUCCUAGUCGGCCGCCACUGACAUGAGGAUCACCCAUGUACAUGAGGAUCACCCAUGUUGUAACAGGACCGGGACUAGGAUGC [SS Tryp B #18]	69.3 nM
AUGUCGUUGAAUACAGCGGCAUGGUGUGAUACCAGAAUGAUCAAAUUCCCUUGGCAGCAUCACAUGAGGAUCACCCAUGUUAAGG [SSTheo A #17]	27.5 nM
AUUCCAUAGGUGCAGUUGUUAAAUGGCGAUACCAGCGUGGAAACACGCCCUUGGCAGCGCCAAAACAUGAGGAUCACCCAUGUUA [Kladno]	48.3 nM
CACGAAAGAUCGGCCGCCACUAAUCUAUGUGUACUAGCACAUGAGGAUCACCCAUGUUCUUGCGUUAGGACCGGGAUUGAGCGUG [#03 Exclusion Tryptophan B]	23.4 nM
AAACAUUGCUGCGAUACCAGACAUGAGGAUCACCCAUGUACCAAGAAAACGUACAUAAAUGUCCCUUGGCAGCGCAGCAAUGAAA [MAT - Exclusion Theophlline B - Mod of Eli - D27]	216 nM
GACAUAUGCUAUGCGCAGGCUACCCUCAGCCGAGGACCGGUACGGCCGCCACUCGUACUACCACAUGAGGAUCACCCAUGUUAUC [theeternabot_exclusion_MS2_Trp_A_29]	20.1 nM
AUUAUAGUUUAUAACGAAGUUGAUACAGAAGGAGCGUGAAUAAUCACAGGUAGGUCGCUGAUAAUACAUGAGGAUCACCCAUGUU [JR_Nu_SSArginiA_Sub018]	20.7 nM
UGCUAGUGAUCGGCCGCCACUGGCACCUUGAGGAUCCUGCUAAAGUACAUGAGGAUCACCCAUGUCAGGACCGGGAUCAUCAGUG [Onveusonri]	9.02 nM
UAGUCCGCGACGGCCGCCACUCGCUGAUGCACAUGUGUCCGGGACAUGAGGAUCACCCAUGUUUCGAGGACCGGGUCGAUCCUAA [Same State Tryptophan B GF 5]	37.5 nM
GUCUGUGACUGAAGGAGCGACAUGAGGAUCACCCAUGUCUCCCGUUAUGGGAGUUCCUUAGGUCAGGUAGGUCGCAGUCACAGAC [#1 Exclusion - Arginine B Attempt #28 (Inspired by Omei)]	71.4 nM
CGGUAACCACAUGAGGAUCACCCAUGUGAAGGAGCGGCGAAUAAGCCAGGUAGGUCGCGCAUGAAUAAAUCAUGUUGGUGCCGAA [XArg-A 16 NuPack]	31.9 nM
AGACAUGAGGAUCACCCAUGUAGUAUGGAUACCAGAUCCAGAUUUAUCCCUUGGCAGCUGUGGUACAGCGUUGCAUCGCUCCUAG [Exclusion - Theophylline A (Freestyle 13)]	28.9 nM
CUGGCAGGAUGAUCCGCUGUCAGGGCUGAUACCAGCCACGAAAGUGGCCCUUGGCAGCAGCAAACAUGAGGAUCACCCAUGUAAA [(T)''-(M)'-(T)'-(Theo)-(Ms2)_Design2]	54.7 nM
GCUGGGUGCGCAAGGACCUGGCGUUGCGAUACCAGCACGGUAACGUGCCCUUGGCAGCGCACAUGAGGAUCACCCAUGUGGUGUU [#1 Exclusion - Theophylline A Attempt #19 (HarryS)]	62.8 nM
